Results on 24 molecules are retold here after PMC8786865 (Nature Communications, 2022).

Residue numbers refer to the chain shown, from its start.

The chains are these.
B1: selected anti-SARS-CoV-2 spike antibody G6 (antibody, V domains shown)
VH: EVQLVESGAEVKKPGASVKVSCKVSGYTFSNHAIHWVRQAPGKGLEWMGGINPNIGDTIYAQKFQGRVTMTEDTSTDTAYMELSSLKSEDTAVYYCARDGYPGDYSGLDVWGQGTLVTVSS
VL: DIQMTQSPSSVSASVGDRVTITCRASQPISSYLAWYQQKPGKAPKLLIYEASKLQSGVPSRFSGSGSGTDFTLTISSLQPEDFANYYCHQYATYPWTFGGGTKVEIK
B2: selected anti-SARS-CoV-2 spike antibody F1 (antibody, V domains shown)
VH: EVQLVQSGAEVKKPGASVKVSCKVSGYPFTSYAIHWVRQAPGKGLEWMGGITPYNADTIYAQKFQGRVTMTEDTSTDTAYMELSSLKSEDTAVYYCARDGYSSGYYGMDVWGQGTTVTVSS
VL: B1 VL with P28D, S30G, S31N, Y32H, E50A, A51S, K53N, Q55A
B3: selected anti-SARS-CoV-2 spike antibody A12 (antibody, V domains shown)
VH: EVQLVQSGAEVKKPGASVKVSCKVSGYSFTDHSIHWVRQAPGKGLEWMGGINPYTGDTIYAQKFQGRVTMTEDTSTDTAYMELSSLKSEDTAVYYCARDGWGSLLNGIAVAGLDYWGQGTLVTVSS
VL: B1 VL with P28D, S30G, S31N, Y32H, E50A, A51S, K53N, Q55A
B4: selected anti-SARS-CoV-2 spike antibody C7 (antibody, V domains shown)
VH: QVQLVQSGAEVKKPGASVKVSCKVSGYSFTNYAIHWVRQAPGKGLEWMGGITPYNADTIYAQKFQGRVTMTEDTSTDTAYMELSSLKSEDTAVYYCARDGGNWAAPYSMDVWGNGTLVTVSS
VL: B1 VL with Q27H, P28G, E50D, S52T, K53I, L54R, Q55A, S56T
B5: selected anti-SARS-CoV-2 spike antibody H2 (antibody, V domains shown)
VH: B2 VH with S31R, Y32S, A33T, T52N, P53A, Y54G, N55T, A56G, T116L
VL: B1 VL with P28G, S31D, Y32F, E50G, K53N, L54R, Q55A, S56T
B6: selected anti-SARS-CoV-2 spike antibody C4 (antibody, V domains shown)
VH: EVQLVQSGAEVKKPGASVKVSCKVSGYSFTDHSIHWVRQAPGKGLEWMGGINPYTGDTIYAQKFQGRVTMTEDTSTDTAYMELSSLKSEDTAVYYCARDGYSGYDYGSVGRDYYYYGMDVWGQGTTVTVSS
VL: B1 VL with P28D, S30G, S31N, Y32H, E50A, A51S, K53N, Q55A
B7: selected anti-SARS-CoV-2 spike antibody G5 (antibody, V domains shown)
VH: QVQLVQSGAEVKKPGASVKVSCKVSGYSFTDHSIHWVRQAPGKGLEWMGGINPYTGDTIYAQKFQGRVTMTEDTSTDTAYMELSSLKSEDTAVYYCARDGYSYGYLSGMDVWGQGTTVTVSS
VL: B1 VL with P28D, S31H, Y32H, E50D, K53L, L54R, Q55A, S56T, V58I, T93A
B8: selected anti-SARS-CoV-2 spike antibody B3 (antibody, V domains shown)
VH: EVQLVQSGAEVKKPGASVKVSCKVSGYTSPATIHWVRQAPGKGLEWMGGISPYKGDTIYAQKFQGRVTMTEDTSTDTAYMELSSLKSEDTAVYYCAKDSYYYDSSGSGLGGGFDYWGQGTLVTVSS
VL: B1 VL with P28D, S30G, S31N, Y32H, E50A, A51S, K53N, Q55A
B9: selected anti-SARS-CoV-2 spike antibody A10 (antibody, V domains shown)
VH: QVQLVQSGAEVKKPGASVKVSCKVSGYSFTDHSIHWVRQAPGKGLEWMGGINPNIGDTIYAQKFQGRVTMTEDTSTDTAYMELSSLKSEDTAVYYCARDGYGDYRGLYGMDVWGQGTTVTVSS
VL: B1 VL with Q27R, P28D, S30N, S31K, E50G, A51E, K53S, L54R, Q55A, S56A
B10: selected anti-SARS-CoV-2 spike antibody G12 (antibody, V domains shown)
VH: B9 VH with Q1E, S28T, T30S, D31N, S33A
VL: B1 VL with P28D, S30G, S31N, Y32H, E50A, A51S, K53N, Q55A
B11: selected anti-SARS-CoV-2 spike antibody C2 (antibody, V domains shown)
VH: QVQLVQSGAEVKKPGASVKVSCKASGYTSPATIHWVRQAPGKGLEWMGGISPYKGDTIYAQKFQGRVTMTEDTSTDTAYMELSSLKSEDTAVYYCARDAYSSSYYYGMDVWGQGTTVTVSS
VL: B1 VL with Q27E, P28D, S31K, E50G, K53N, Q55H, S56T
B12: selected anti-SARS-CoV-2 spike antibody G4 (antibody, V domains shown)
VH: QVQLVQSGAEVKKPGASVKVSCKVSGYTLSDHAIHWVRQAPGKGLEWMGGINPYTGDTIYAQKFQGRVTMTEDTSTDTAYMELSSLKSEDTAVYYCARDGYDFWSGSYGMDVWGQGTTVTVSS
VL: B1 VL with P28D, S30G, S31N, Y32H, E50A, A51S, K53N, Q55A
B13: selected anti-SARS-CoV-2 spike antibody A11 (antibody, V domains shown)
VH: B7 VH
VL: B1 VL with P28D, S30G, S31N, Y32H, E50A, A51S, K53N, Q55A
B14: selected anti-SARS-CoV-2 spike antibody B11 (antibody, V domains shown)
VH: EVQLVQSGAEVKKPGASVKVSCKVSGYSFTDHSIHWVRQAPGKGLEWMGGINPYTGDTIYAQKFQGRVTMTEDTSTDTAYMELSSLKSEDTAVYYCARDAYPYYYGMDVWGQGTTVTVSS
VL: B1 VL with P28D, S30G, S31N, Y32H, E50A, A51S, K53N, Q55A
B15: selected anti-SARS-CoV-2 spike antibody F5 (antibody, V domains shown)
VH: B1 VH with E6Q, P102S, D104Y, Y105V, S106E, L108M, L116T
VL: B1 VL with P28N, S30H, E50D, A51T, T93A
B16: selected anti-SARS-CoV-2 spike antibody D3 (antibody, V domains shown)
VH: B12 VH with Q1E, T28S, L29F, S30A, H32Y, Y54N, T55I
VL: DIQMTQSPSSVSASVGDRVTITCRASQDIGNHLAWYQQKPGKAPKLLIYASSNLASGVPSRFSGSGSGTDFTLTISSLQPEDFANYYCQQYSEYPWTFGGGTKVEIK
B17: selected anti-SARS-CoV-2 spike antibody B7 (antibody, V domains shown)
VH: B3 VH with E1Q, Y54N, T55I, R98K
VL: B16 VL with Q89H, S92A, E93T
B18: selected anti-SARS-CoV-2 spike antibody F7 (antibody, V domains shown)
VH: QVQLVQSGAEVKKPGASVKVSCKVSGYSFSTYTIHWVRQAPGKGLEWMGGINPYTGDTIYAQKFQGRVTMTEDTSTDTAYMELSSLKSEDTAVYYCARDGYSGYESSYYYYGMDVWGQGTTVTVSS
VL: B16 VL with Q89H, S92A, E93T
B19: selected anti-SARS-CoV-2 spike antibody D2 (antibody, V domains shown)
VH: QVQLVQSGAEVKKPGASVKVSCKVSGYSFTDHSIHWVRQAPGKGLEWMGGINPYTGDTIYAQKFQGRVTMTEDTSTDTAYMELSSLKSEDTAVYYCARDARLLDYWGQGAQVTVSS
VL: B16 VL with Q27R, D28S, Q89H, S92A, E93T
B20: selected anti-SARS-CoV-2 spike antibody C1 (antibody, V domains shown)
VH: EVQLVQSGAEVKKPGASVKVSCKVSGYSFTDHSIHWVRQAPGKGLEWMGGISTQRGDTIYAQKFQGRVTMTEDTSTDTAYMELSSLKSEDTAVYYCARDGYYGSGTYYYYGMDVWGQGTTVTVSS
VL: B16 VL with D28S, N31S, H32F, A50G, S51E, L54R, S56T, S92N, E93R, T97A
B21: selected anti-SARS-CoV-2 spike antibody B2 (antibody, V domains shown)
VH: B20 VH with E1Q, S52N, T53P, Q54Y, R55T, G100A, Y102S, G105Y, T106P
VL: DIQMTQSPSSVSASVGDRVTITCRASEGISNYLAWYQQKPGKAPKLLIYGTSDRASGIPSRFSGSGSGTDFTLTISSLQPEDFANYYCQQYSAFPWTFGGGTKVEIK
B22: selected anti-SARS-CoV-2 spike antibody G2 (antibody, V domains shown)
VH: QVQLVQSGAEVKKPGASVKVSCKVSGYTFTANAIHWVRQAPGKGLEWMGGIGPGQGDTIYAQKFQGRVTMTEDTSTDTAYMELSSLKSEDTAVYYCARDGHCSGGSCPSGMDVWGQGTTVTVSS
VL: B16 VL with A50G, S51A, N53I, L54R, A55E, E93A, Y94F
B23: E5 (antibody, V domains shown)
VH: B3 VH with R98K
VL: B16 VL with G30S, N31T, H32Y, Q89H, S92A, E93T, T97G
B24: G8 (antibody, V domains shown)
VH: B3 VH with Q6E
VL: B16 VL with D28S, N31S, H32F, Q89H, S92A, E93T

The target in the first assay is T1, SARS-CoV-2 spike receptor-binding domain (RBD) (SARS-CoV-2, Wuhan-Hu-1, UniProt P0DTC2).
T1 construct: also called SARS-CoV-2 RBD
The experiment in a line: SPR; array SPR (Carterra LSA), HC200M chip; IgG captured on immobilised anti-human Fc; antigen as analyte in a 7-point series, RBD 300 nM to 411 pM or trimer 100 nM to 137 pM, in 1x HBSTE with 0.5 mg/mL BSA; association 5 min, dissociation 11 min; one-site model; constants for the trimer are called avidities. Conditions: both partners purified.
For B1, the binding result was “binds”.
On the same count and under the same terms, in the case of B2 it was “binds”; in that of B3, “binds”; in that of B4, “binds”.
On the same count and under the same terms, next, B5: “binds”; B6: “binds”; B7: “binds”.
Same read-out and setting: next, B8: “binds”; B9: “binds”.
Regarding B10, the binding result was “binds”.
Still for that read-out and setting: next, B11: “binds”; B12: “binds”; B13: “binds”.
On the same count and under the same terms, next, B14: “binds”; B15: “binds”; B16: “binds”.
As for B17, the binding result was “binds”.
The same measure, in the same setting: in the case of B18 it was “binds”; in that of B19, “binds”; in that of B20, “binds”.
Regarding B21, the binding result is “binds”.
Still for that read-out and setting: next, B22: “binds”.

The target in the next assay is T1, SARS-CoV-2 spike receptor-binding ….
Assay: not given
Details: not given
On to B23, for which the binding result is “binds”.
On the same count and under the same terms, next, B24: “binds”.
